Laboratory results taken from patent US20260258115A1 (MAPP BIOPHARMACEUTICAL, published 2026).

These binders were tested against RSV F on RSV-A2 virus (Respiratory syncytial virus (RSV-A2)) (assay: cell-based or functional assay).

Binder | Neutralization IC50 (RSV subtype A) [µg/mL]
ADI-41305 (antibody, V domains shown) VH: QVTLKESGPGLVKPSQTLSLTCTVSGGSISGGGYYWSWIRQLPGKGLQWIGCIYDSGTTYYNPSLKSLVTISIDTSKNQFSLKLSSVTAADTAVYYCARGGSLDDFWSATWYFALWGRGTLVTVSS VL: EIVLTQSPGTLSLSPGERATLSCRASQSVSSNYLAWYQQKPGQAPRLLIYGASSRATGIPDRFSGSGSGTDFTLTISRLEPEDFAFYYCQQYGRSPYTFGPGTKLEIK | > 25
ADI-41303 (antibody, V domains shown) VH: QVQLVQSGGGLVRPGGSLRVSCAASGFIFNNYALTWVRQAPGKGLEWVSAISGSGSSTYYADSVKGRFTISRENSNNRLYLQLSGLRAEDTAVYFCARVRGLVWFEGRIDPYPNVFDYWGQGTLVTVSS VL: DIVLTQSPGTLSLSPGERATLSCRASQSVSNDYLAWYQQKPGQAPRLLIYDASSRAIGIPDRFSGSGSGTDFTLIISRLEPEDFAVYYCHHPGKFGQGTKVEIK | > 25
ADI-41296 (antibody, V domains shown) VH: EVQLVESGVEVKKPGESLKISCRGSGYTFYNYWIAWVRQKPGKGLEYMGTIYLDDSETIYSPSFQGEVTISADKSINTAYLQWNSLKASDTANYYCARQMDFYFDVWGRGTLVTVSS VL: SYELMQPPSVSVSPGQTARITCSGDPLPRESAYWYQQKPGQAPVVIIFNDIERPLGIPERFSGSRSGTTVTLTISGAQAEDEADYYCQSADSRKTFVFGTGTKLTVL | > 25
ADI-41294 (antibody, V domains shown) VH: EVQLLESGGGLVQPGGSLRLSCAASGFTFSAYEMNWVRQAPGKGLEWVSYISSSGSNKHYADSVKGRFTISRDNAKNSLHLHMNSLRAEDTALYYCTRPHQEEWELLPNDAFDLWGQGTMVTVSS VL: QSALTQPPSASGSPGQSVTISCTGTSTDVGAYTYVSWYQQHPGKAPKLIIYEVYKRPSGVPNRFFGSKSGNTASLTVSGLQAEDEADYYCSSYGGSNNFGLFGGGTKLIVL | 0.0805
ADI-41302 (antibody, V domains shown) VH: QVQLVESGGGVVQPGRSLRLSCAASGFTFSSYAMQWVRQAPGKGLEWVAVMTNDGDDKYYADSVRGRFTISRDNSKNTLYLQMNNLRPEDTAVYYCARDLFEWWELLGYCYAMDVWGQGTTVTVSS VL: QSVLTQPPSASGSPGQSVTISCTGTSSDVGAYNYVSWYQQHPGKAPKLIIYEVYKRPSGVPDRFFGSKSGNTASLTVSGLQAEDEADYYCSSYAGSNTLGVFGGGTKVTVL | 0.006
ADI-41299 (antibody, V domains shown) VH: EVQLVESGGGLVHPGRSLRLSCGASGFTFRSFAMHWVRQAPGKGLEWVAVISYDGSDEYYADSVKGRFTISRDNSRNTLFLQMNRLRPEDTAIYYCARAYCSTSNCPVLDYWGQGTLVTVSS VL: QSVLIQPASVSGSPGQSITISCTGTSSDVGGYSLVSWYQQHPGKAPKLIIFEGNKRPAGVSDRFSGSKYGDTASLTISGLQAEDEADYYCCSYAGGHSVFGGGTKVTVL | > 25
ADI-41291 (antibody, V domains shown) VH: QVQLQQWGAGLLKPSETLSLTCVVYGESFSDSGYYWTWIRQPPEKGLEWIGEINHGGSTSYNPSLKSRVTISVDTSENQFSLKVTSVTGADTAVYYCARLRLGCSGGSCYSRFDYWGQGTLVTVSS VL: DIQLTQSPSSLSASVGDRVTITCRASQSINSYLNWYQQKPGKAPVLLIHAASSLQGGVPSRFSGSGSGTDFTLTISSLQPEDFATYYCQQSYNTRWTFGHGTKVDIK | > 25
ADI-41288 (antibody, V domains shown) VH: EVQLVESGGGLVQPGGSLRLSCAASGFTFSSYAMSWVRQAAGKGLEWVSAISGSGDDTFYADSVKDRFIISRDSSKRKVYLQMNSLRVEDTAVYYCAKTDIMVTFGGVVVDAYYFDHWGQGTLVTVSS VL: ETTLTQSPGTLSLSPGERATLSCRASQFVFRSYLAWYQQRPGQPPRLLIYGASSRATGIPDRFSGRGSGTEFTLTISRLEPEDFAMYYCQHYDSSPPGTFGGGTKVEIK | > 25
ADI-41292 (antibody, V domains shown) VH: EVQLLESGGGVVQPGRSLRLSCAASGFSFSSYGIHWVRQAPGKGLECVALMSYDGSEKYYADSVKGRFTISRDNSKNTLYLHMNSLRREDTAVYYCAKGSHLRWSHLDYYFHLWGRGTLVTVSS VL: DIVMTQSPSTLSASVGDRVTITCRASQSLSTWLAWYQQKPGKAPKLLISDASNLESGVPSRFSGRGSGTEFTLTISGLQPDDFATYYCQQERTFGQGTKVDIK | > 25
ADI-41297 (antibody, V domains shown) VH: QVQLVQSGAEVKKPGSSVKVSCKASGGTFSTDAISWVRQAPGQGLEWMGGIIPLFGTANYAQKFQGRVTITADESTSTAYMELNSLRSVDTAVYYCGRTGAFDGEVVVRPHLDLWGQGTLVTVSS VL: QPVLTQPASVSGSPGQSITISCTGTSSDVGGYDYVSWYQHHPGKAPKLMIYEVSNRPSGVSNRFSGSKSGNTASLTISGLQADDEAAYYCSSYTRSNTLLFGGGTKLTVL | > 25
ADI-41289 (antibody, V domains shown) VH: EVQLVQSGAEVKKPGESLKISCKGSGYSFSSFWIGWVRQMPGKGLEWMGIIYPGDSDTRYSPSFQGQVTISADQSIRTAYLQWNSLKASDTGLYYCAKGGLGDVEMATIAVWGQGTLVTVSS VL: QSVLIQPASVSGSPGQSITIPCTGTSSDVGSYNLVSWYQHHPGKAPKLIISEGSKRPLGVSNRFSGSKSGNTASLTISGLQAEDEADYYCSSYVRSRTFNYVFGTGTKLTVL | > 25
ADI-41287 (antibody, V domains shown) VH: EVQLVESGGGLVQPGRSLRLSCAASGFTFDDYAMHWVRQAPGKGLEWVSSISWHSADIGYAASVEGRFTISRDNAKNSLFLQMNSLRPEDTALYYCAKEIVSTSWYSGYFQDWGQGTLVTVSS VL: QPVLTQPRSVSGSPGQSVTISCTGTSSDVGDYNYVSWYQQHPGKAPKLMIYDVSKRPSGVPDRFSGSKSGNTASLTISGLQGEDEADYYCCSYAGRHTFVFGTATKVTVL | 5.85
ADI-41304 (antibody, V domains shown) VH: EVQLVESGPGLVKPSQTLSLTCTVSGGSIRSHDYYWSWIRQPPGKGLEWIGYSYYSGSTYYNPSLKSRVIISLDTSKNQFSLNLTSVTAADTAMYYCARDRPHTSSWIPGWFDPWGQGTLVTVSS VL: SYELTQPPSASGTPGQRVTISCSGSSSNIGSNTVSWYQQFPGKAPKLLIYSNNERPSGGPDRFSGSKSGTSASLAIGGLQSEDEANYYCAAWDDSLYAVVFGGGTKLTVL | > 25
ADI-41293 (antibody, V domains shown) VH: QVQLQQSGPGLAKPSQTLSLTCTVSGGPISGVDYYWSWIRQPPGKGLEWIGYIYYSGSTYYNPSLKSRVTISVDTSKKQFSLKMSSVTAADTAVYYCARDVGATPYYYYGMDVWGQGTTVTVSS VL: DIVLTQSPDTLSLSPGERATLSCRASQSVRSNYLAWYQHKPGQAPRLLIYGASSRVAGIPDRFSGSGSGTDFTLTISRLEPEDFAVYYCQQYGSSPPSVTFGGGTKVEIK | 0.159
ADI-41286 (antibody, V domains shown) VH: QVQLVQSGAEVKKPGASVKVSCKASGYTFISYGISWVRQAPGQGPEWMGWISTHNGNTNYAQKLQGRVTMTTDTSTSTAYMELRSLRSDDTAVYYCARDERSIAVEVYLGSTFDIWGQGTMVTVSS VL: DIQVTQSPSSVSASVGDRVTITCRASQGISSWLAWYQQKPGKAPKLLIYAASTLQSGVPSRFSGSGSGTDFTLTISRLQPEDFATYYCQQANIFGVTFGPGTKVDIK | > 25
